From patent US20070280947A1

Assays:
[1] = biological target: Human Tie-1 (human) (UniProt P35590); experiment: cell-based or functional assay
[2] = biological target: Human Tie-2 (human) (UniProt Q02763); experiment: cell-based or functional assay
UniProt Q02763, sequence (Q02763 23-1124 Q346P/T695I): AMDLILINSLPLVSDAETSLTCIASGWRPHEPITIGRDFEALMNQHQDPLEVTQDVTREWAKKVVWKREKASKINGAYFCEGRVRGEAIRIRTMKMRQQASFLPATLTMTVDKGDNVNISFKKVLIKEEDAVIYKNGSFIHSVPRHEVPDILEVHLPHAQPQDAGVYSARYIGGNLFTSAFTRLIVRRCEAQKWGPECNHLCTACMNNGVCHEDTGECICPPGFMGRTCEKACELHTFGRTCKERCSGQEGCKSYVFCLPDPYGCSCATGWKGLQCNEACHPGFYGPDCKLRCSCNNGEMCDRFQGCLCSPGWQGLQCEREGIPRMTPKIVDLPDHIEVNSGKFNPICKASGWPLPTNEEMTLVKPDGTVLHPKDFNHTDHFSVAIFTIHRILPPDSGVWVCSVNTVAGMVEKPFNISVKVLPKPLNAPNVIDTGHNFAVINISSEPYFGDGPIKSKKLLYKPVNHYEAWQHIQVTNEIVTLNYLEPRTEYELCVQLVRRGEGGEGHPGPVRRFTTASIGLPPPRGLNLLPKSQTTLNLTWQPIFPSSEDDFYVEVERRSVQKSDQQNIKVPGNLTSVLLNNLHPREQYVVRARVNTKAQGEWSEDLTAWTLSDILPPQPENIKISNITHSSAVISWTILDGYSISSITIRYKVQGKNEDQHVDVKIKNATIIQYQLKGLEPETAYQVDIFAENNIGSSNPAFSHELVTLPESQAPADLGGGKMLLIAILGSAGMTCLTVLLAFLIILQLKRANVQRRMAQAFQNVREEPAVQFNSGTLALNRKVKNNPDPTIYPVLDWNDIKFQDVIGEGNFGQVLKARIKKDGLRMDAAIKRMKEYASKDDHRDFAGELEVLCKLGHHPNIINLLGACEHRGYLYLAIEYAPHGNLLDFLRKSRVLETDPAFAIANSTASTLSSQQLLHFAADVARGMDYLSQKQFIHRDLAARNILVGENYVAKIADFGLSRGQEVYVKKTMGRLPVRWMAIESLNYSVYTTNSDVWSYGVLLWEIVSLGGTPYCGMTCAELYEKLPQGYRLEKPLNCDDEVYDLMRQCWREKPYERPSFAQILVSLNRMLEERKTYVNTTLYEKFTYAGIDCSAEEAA

UniProt P35590, sequence (P35590 25-1138): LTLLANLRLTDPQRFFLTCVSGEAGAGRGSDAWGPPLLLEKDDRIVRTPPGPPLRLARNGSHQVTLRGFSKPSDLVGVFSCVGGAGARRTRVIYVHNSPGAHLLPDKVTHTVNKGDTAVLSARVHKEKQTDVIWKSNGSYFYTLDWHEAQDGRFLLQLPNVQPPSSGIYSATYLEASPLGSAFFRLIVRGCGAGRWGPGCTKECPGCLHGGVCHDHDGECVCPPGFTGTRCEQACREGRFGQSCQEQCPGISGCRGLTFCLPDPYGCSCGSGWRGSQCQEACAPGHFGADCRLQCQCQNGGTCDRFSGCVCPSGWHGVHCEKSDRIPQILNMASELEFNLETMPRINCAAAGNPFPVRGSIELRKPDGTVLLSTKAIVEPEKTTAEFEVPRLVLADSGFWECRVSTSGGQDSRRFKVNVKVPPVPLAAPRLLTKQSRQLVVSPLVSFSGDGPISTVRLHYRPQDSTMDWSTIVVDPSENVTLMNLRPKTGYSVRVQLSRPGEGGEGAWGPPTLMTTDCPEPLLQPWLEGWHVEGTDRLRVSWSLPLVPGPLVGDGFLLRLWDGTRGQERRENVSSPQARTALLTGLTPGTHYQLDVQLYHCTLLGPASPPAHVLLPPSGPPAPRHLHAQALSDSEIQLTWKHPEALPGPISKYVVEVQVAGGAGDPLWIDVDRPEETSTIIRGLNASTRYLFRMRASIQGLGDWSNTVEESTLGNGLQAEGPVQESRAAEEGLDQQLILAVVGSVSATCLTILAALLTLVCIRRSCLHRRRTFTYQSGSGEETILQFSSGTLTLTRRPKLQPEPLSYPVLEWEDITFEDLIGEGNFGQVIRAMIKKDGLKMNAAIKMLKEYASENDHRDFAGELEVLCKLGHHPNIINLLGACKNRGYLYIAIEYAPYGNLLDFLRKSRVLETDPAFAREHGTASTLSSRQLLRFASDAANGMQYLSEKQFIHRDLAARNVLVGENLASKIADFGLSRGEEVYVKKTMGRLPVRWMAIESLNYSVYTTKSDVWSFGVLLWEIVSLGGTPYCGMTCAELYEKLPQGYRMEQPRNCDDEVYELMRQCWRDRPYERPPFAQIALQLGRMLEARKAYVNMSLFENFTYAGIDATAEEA

COMP-Ang-1 chimeric protein (from UniProt Q15389 256-498) (ligand)
COMP-Ang-1 concentration giving maximal receptor phosphorylation [1]: 600 ng/mL
COMP-Ang-1 concentration giving significant receptor phosphorylation [1]: 100 ng/mL
COMP-Ang-1 concentration giving maximal receptor phosphorylation [2]: 600 ng/mL
COMP-Ang-1 concentration giving significant receptor phosphorylation [2]: 100 ng/mL
